The data set can be described thus: Lysozyme release from viscoelastic gels into release buffer (BCA protein assay). It is filed as physicochemical. The note with it: after approximately one month; gel solid content 15 wt.-%, DS 4 and 8, lysozyme 1 wt.-% in buffer; release buffer Hepes pH 7. The procedure:
Viscoelastic gel compositions with a solid content of 15 wt.-% comprising lysozyme as a model active compound were prepared by dispersing equal amounts of dex-HEMA-L-lactate and dex-HEMA-D-lactate microspheres (DS 4 and 8) in lysozyme-containing (1 wt.-%) aqueus buffer solution. The microparticles were allowed to hydrate overnight at 4° C. Viscoelastic gels were formed which were then tested for lysozyme release using the method described by Van Tomme et al. JCR 2005; 110:67-78. In short, samples of 500 mg of the gels were transferred in a release device and 3 mL release buffer (Hepes, pH 7, 100 mM, 150 mM NaCl, 0.02% NaN3). At certain time intervals, samples were taken and analysed for their protein content using a BCA® protein assay. After approximately one month, about 80% of the entrapped lysozyme was released. No significant difference could be detected between the two batches (i.e. with DS 4 and DS 8) were observed.

With lysozyme, the entrapped lysozyme released entry is on record as “about 80%”.

The values are drawn from patent publication US20100226985A1, “VISCOELASTIC AQUEOUS GELS COMPRISING MICROSPHERES” (priority 2006, published 2010).
